Laboratory results taken from US20150344570A1 (published 2015).

T1: FcγRIIa R (FcγRIIa, allotype with Arg at position 131), extracellular domain with C-terminal His tag (human, UniProt P12318 34-217)
T1 construct: extracellular domain; also called FcγRIIa R type; 2aR
T1 sequence (looked up): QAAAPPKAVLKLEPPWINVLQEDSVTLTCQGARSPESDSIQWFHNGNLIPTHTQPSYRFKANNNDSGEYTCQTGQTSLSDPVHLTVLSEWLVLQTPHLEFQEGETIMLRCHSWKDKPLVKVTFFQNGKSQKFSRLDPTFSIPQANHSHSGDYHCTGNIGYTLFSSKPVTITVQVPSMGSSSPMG

B1: GpH7-A5/GpH7-B3 variant S239_06M/GpL16-k0 (antibody, human IgG1, kappa)
heavy 1: not shown
heavy 2: not shown
light: DIVMTQSPLSLPVTPGEPASISCQASESLVHSNRNTYLHWYLQKPGQSPQLLIYKVSNRFSGVPDRFSGSGSGTDFTLKISRVEAEDVGVYYCSQNTHVPPTFGQGTKVEIERTVAAPSVFIFPPSDEQLKSGTASVVCLLNNFYPREAKVQWKVDNALQSGNSQESVTEQDSKDSTYSLSSTLTLSKADYEKHKVYACEVTHQGLSSPVTKSFNRGEC
notes: also called He Ab
B2: GpH7-A5/GpH7-B3 variant S337_03V/GpL16-k0 (antibody, human IgG1, kappa)
heavy 1: not shown
heavy 2: not shown
light: B1 light
notes: also called He Ab
B3: GpH7-A5/GpH7-B3 variant S239_18N/GpL16-k0 (antibody, human IgG1, kappa)
heavy 1: not shown
heavy 2: not shown
light: B1 light
notes: also called He Ab
B4: GpH7-A5/GpH7-B3 variant S267_19Q/GpL16-k0 (antibody, human IgG1, kappa)
heavy 1: not shown
heavy 2: not shown
light: B1 light
notes: also called He Ab
B5: GpH7-A5/GpH7-B3 variant S239_08L/GpL16-k0 (antibody, human IgG1, kappa)
heavy 1: not shown
heavy 2: not shown
light: B1 light
notes: also called He Ab
B6: GpH7-A5/GpH7-B3 variant S324_06M/GpL16-k0 (antibody, human IgG1, kappa)
heavy 1: not shown
heavy 2: not shown
light: B1 light
notes: also called He Ab
B7: GpH7-A5/GpH7-B3 variant S267_09D/GpL16-k0 (antibody, human IgG1, kappa)
heavy 1: not shown
heavy 2: not shown
light: B1 light
notes: also called He Ab
B8: GpH7-A5/GpH7-B3 variant S239_14T/GpL16-k0 (antibody, human IgG1, kappa)
heavy 1: not shown
heavy 2: not shown
light: B1 light
notes: also called He Ab
B9: GpH7-A5/GpH7-B3 variant S337_08L/GpL16-k0 (antibody, human IgG1, kappa)
heavy 1: not shown
heavy 2: not shown
light: B1 light
notes: also called He Ab
B10: GpH7-A5/GpH7-B3 variant S337_11K/GpL16-k0 (antibody, human IgG1, kappa)
heavy 1: not shown
heavy 2: not shown
light: B1 light
notes: also called He Ab
B11: GpH7-A5/GpH7-B3 variant S267_03V/GpL16-k0 (antibody, human IgG1, kappa)
heavy 1: not shown
heavy 2: not shown
light: B1 light
notes: also called He Ab
B12: GpH7-A5/GpH7-B3 variant S337_07I/GpL16-k0 (antibody, human IgG1, kappa)
heavy 1: not shown
heavy 2: not shown
light: B1 light
notes: also called He Ab
B13: GpH7-A5/GpH7-B3 variant S337_04F/GpL16-k0 (antibody, human IgG1, kappa)
heavy 1: not shown
heavy 2: not shown
light: B1 light
notes: also called He Ab
B14: GpH7-A5/GpH7-B3 variant S239_07I/GpL16-k0 (antibody, human IgG1, kappa)
heavy 1: not shown
heavy 2: not shown
light: B1 light
notes: also called He Ab
B15: GpH7-A5/GpH7-B3 variant S298_06M/GpL16-k0 (antibody, human IgG1, kappa)
heavy 1: not shown
heavy 2: not shown
light: B1 light
notes: also called He Ab
B16: GpH7-A5/GpH7-B3 variant S267_06M/GpL16-k0 (antibody, human IgG1, kappa)
heavy 1: not shown
heavy 2: not shown
light: B1 light
notes: also called He Ab
B17: GpH7-A5/GpH7-B3 variant S337_09D/GpL16-k0 (antibody, human IgG1, kappa)
heavy 1: not shown
heavy 2: not shown
light: B1 light
notes: also called He Ab
B18: GpH7-A5/GpH7-B3 variant S298_08L/GpL16-k0 (antibody, human IgG1, kappa)
heavy 1: not shown
heavy 2: not shown
light: B1 light
notes: also called He Ab
B19: GpH7-A5/GpH7-B3 variant S337_06M/GpL16-k0 (antibody, human IgG1, kappa)
heavy 1: not shown
heavy 2: not shown
light: B1 light
notes: also called He Ab
B20: GpH7-A5/GpH7-B3 variant S239_10E/GpL16-k0 (antibody, human IgG1, kappa)
heavy 1: not shown
heavy 2: not shown
light: B1 light
notes: also called He Ab
B21: GpH7-A5/GpH7-B3 variant S324_04F/GpL16-k0 (antibody, human IgG1, kappa)
heavy 1: not shown
heavy 2: not shown
light: B1 light
notes: also called He Ab
B22: GpH7-A5/GpH7-B3 variant S337_10E/GpL16-k0 (antibody, human IgG1, kappa)
heavy 1: not shown
heavy 2: not shown
light: B1 light
notes: also called He Ab
B23: GpH7-A5/GpH7-B3 variant S337_12R/GpL16-k0 (antibody, human IgG1, kappa)
heavy 1: not shown
heavy 2: not shown
light: B1 light
notes: also called He Ab

Each binder was assayed against T1, FcγRIIa R (FcγRIIa, allotype with Arg …) (assay: SPR (Biacore), antibody captured on antigen peptide chip, FcγR as analyte; relative binding).
Protocol: Analysis of interaction between objective antibody and the FcγR was carried out using Biacore T100 (GE Healthcare). HBS-EP+ (GE Healthcare) was used as the running buffer, and the measurement temperature was set to 25° C. Chips produced by immobilizing the antigen peptide by the amine coupling method to a Series S Sencor Chip CM5 (GE Healthcare), or alternatively, chips produced by allowing preliminarily biotinylated antigen peptides to interact with and immobilize onto a Series S Sensor Chip SA (certified) (GE Healthcare) were used. Antibodies of interest were captured onto an antigen peptide-immobilized chip, and allowed to interact to each FcγR diluted with running buffer. To regenerate and repeatedly use the chip, the antibodies captured on the chip were washed off by reacting 10 mM glycine-HCl, pH 1.5.

He/Con_2aR | Binder
101 % of GpH7-A5/GpH7-B3/GpL16-k0 (=100) | B1
106 % of GpH7-A5/GpH7-B3/GpL16-k0 (=100) | B2
111 % of GpH7-A5/GpH7-B3/GpL16-k0 (=100) | B3
135 % of GpH7-A5/GpH7-B3/GpL16-k0 (=100) | B4
122 % of GpH7-A5/GpH7-B3/GpL16-k0 (=100) | B5
123 % of GpH7-A5/GpH7-B3/GpL16-k0 (=100) | B6
173 % of GpH7-A5/GpH7-B3/GpL16-k0 (=100) | B7
103 % of GpH7-A5/GpH7-B3/GpL16-k0 (=100) | B8
107 % of GpH7-A5/GpH7-B3/GpL16-k0 (=100) | B9
103 % of GpH7-A5/GpH7-B3/GpL16-k0 (=100) | B10
116 % of GpH7-A5/GpH7-B3/GpL16-k0 (=100) | B11
109 % of GpH7-A5/GpH7-B3/GpL16-k0 (=100) | B12
105 % of GpH7-A5/GpH7-B3/GpL16-k0 (=100) | B13
102 % of GpH7-A5/GpH7-B3/GpL16-k0 (=100) | B14
108 % of GpH7-A5/GpH7-B3/GpL16-k0 (=100) | B15
122 % of GpH7-A5/GpH7-B3/GpL16-k0 (=100) | B16
115 % of GpH7-A5/GpH7-B3/GpL16-k0 (=100) | B17
105 % of GpH7-A5/GpH7-B3/GpL16-k0 (=100) | B18
105 % of GpH7-A5/GpH7-B3/GpL16-k0 (=100) | B19
135 % of GpH7-A5/GpH7-B3/GpL16-k0 (=100) | B20
104 % of GpH7-A5/GpH7-B3/GpL16-k0 (=100) | B21
112 % of GpH7-A5/GpH7-B3/GpL16-k0 (=100) | B22
107 % of GpH7-A5/GpH7-B3/GpL16-k0 (=100) | B23
